Values of other authors as cited in article PMC9590617.

Columns and labels:
[1] = molecular target: NPFFR2 (Homo sapiens) (UniProt Q9Y5X5)
[2] = molecular target: NPFFR1 (Homo sapiens) (UniProt Q9GZQ6)
Sequence of UniProt Q9GZQ6 (Q9GZQ6 whole entry): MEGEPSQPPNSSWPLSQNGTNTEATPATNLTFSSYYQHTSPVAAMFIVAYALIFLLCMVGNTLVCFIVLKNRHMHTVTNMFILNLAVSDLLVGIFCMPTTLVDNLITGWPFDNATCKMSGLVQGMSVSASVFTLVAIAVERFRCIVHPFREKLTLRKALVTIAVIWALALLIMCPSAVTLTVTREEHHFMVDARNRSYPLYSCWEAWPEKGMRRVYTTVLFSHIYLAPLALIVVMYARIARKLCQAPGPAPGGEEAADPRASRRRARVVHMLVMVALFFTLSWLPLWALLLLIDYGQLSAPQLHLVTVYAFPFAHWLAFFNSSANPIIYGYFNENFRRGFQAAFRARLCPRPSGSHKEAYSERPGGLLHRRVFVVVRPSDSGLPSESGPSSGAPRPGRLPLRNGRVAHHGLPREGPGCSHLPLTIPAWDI

Sequence of UniProt Q9Y5X5 (Q9Y5X5 whole entry): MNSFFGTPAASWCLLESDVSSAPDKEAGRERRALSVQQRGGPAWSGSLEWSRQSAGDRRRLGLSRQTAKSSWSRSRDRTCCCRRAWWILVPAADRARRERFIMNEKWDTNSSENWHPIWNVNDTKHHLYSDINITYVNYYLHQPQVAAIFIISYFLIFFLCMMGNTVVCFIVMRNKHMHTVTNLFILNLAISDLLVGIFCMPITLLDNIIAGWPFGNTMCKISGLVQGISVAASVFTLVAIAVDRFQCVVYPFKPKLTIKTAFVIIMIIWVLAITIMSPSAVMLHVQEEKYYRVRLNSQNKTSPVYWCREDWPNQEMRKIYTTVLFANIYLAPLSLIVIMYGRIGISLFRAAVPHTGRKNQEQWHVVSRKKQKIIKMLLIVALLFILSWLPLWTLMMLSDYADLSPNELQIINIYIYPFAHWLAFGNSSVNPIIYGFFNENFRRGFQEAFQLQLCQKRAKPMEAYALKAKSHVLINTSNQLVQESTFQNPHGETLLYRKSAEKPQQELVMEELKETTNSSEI

Q: Which Kd [1] does the source give for Neuropeptide FF (from UniProt O15130) here?
A: The Kd was 0.37 nM.

Q: What about the Kd [2] of the same substance?
A: Its Kd is 1.13 nM.
